Each molecule was assayed against fluorescently labeled peptide derived from the C-terminus of β-catenin (assay: fluorescence polarisation).

Erbin PDZ domain, sequence (Q80TH2 1311-1400): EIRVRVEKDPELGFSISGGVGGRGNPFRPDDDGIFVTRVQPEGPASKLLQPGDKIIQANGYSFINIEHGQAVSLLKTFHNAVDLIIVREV

Row | Molecule | Kd
1 | Grip1 PDZ domain (domain or fragment) | 369 µM
2 | LIN7 PDZ domain (from UniProt O88951 93-175) (domain or fragment) | 25 µM
3 | NHERF-1 PDZ domain (domain or fragment) | 20 µM
4 | PDZk3 PDZ domain (domain or fragment) | 207 µM
5 | PDZk7 PDZ domain (domain or fragment) | 103 µM
6 | PSD95 PDZ domain (domain or fragment) | 31 µM
7 | PTP-BL PDZ domain (domain or fragment) | 79 µM
8 | Pard3 PDZ domain (domain or fragment) | 100 µM
9 | SAP97 PDZ domain (domain or fragment) | 342 µM
10 | Scrib PDZ domain (domain or fragment) | 13 µM
11 | Synip PDZ domain (domain or fragment) AFRVITVTKETGLGLKILGGINRNEGPLVYIHEVIPGGDCYKDGRLKPGDQLVSINKESMIGVSFEEAKSIITRAKLRSESPWEIAF | 276 µM
12 | Shank3 PDZ domain (domain or fragment) VAILQKRDHEGFGFVLRGAKAETPIEEFTPTPAFPALQYLESVDVEGVAWRAGLRTGDFLIEVNGVNVVKVGHKQVVGLIRQGGNRLVMKVVSVT | 9 µM
13 | PDZ11 PDZ domain (domain or fragment) IVTLKKPPGAQLGFNIRGGKASQLGIFISKVIPDSDAHRAGLQEGDQVLAVNDVDFQDIEHSKAVEILKTAREISMRVRFFPY | 333 µM

The next molecules have a lower Kd than those just listed; values first:

Row | Kd | Molecule
14 | 6 µM | Erbin PDZ domain (from UniProt Q80TH2 1311-1400) (domain or fragment)
15 | 1 µM | Magi-1 PDZ domain 6 (domain or fragment)
16 | 1 µM | Magi-3 PDZ domain (domain or fragment)
17 | 1 µM | Tiam2 PDZ domain (domain or fragment) DVQLTKTGDMTDFGFAVTVQVDEHQHLNRIFISDVLPDSLAYGGGLRKGNEITSLNGEPVSDLDIQQMEALFSEKSVGLTLVARPVT
18 | 0.6 µM | Magi-2 PDZ domain (domain or fragment)
19 | 0.3 µM | Tip1 PDZ domain (domain or fragment) RVEIHKLRQGENLILGFSIGGGIDQDPSQNPFSEDKTDKGIYVTRVSEGGPAEIAGLQIGDKIMQVNGWDMTMVTHDQARKRLTKRSEEVVRLLVTRQ

— PMC3728706
